Assay results taken from article PMC11481484.

Key:
Test in all cases: cross-linking + co-IP; BHK-21 cells 42 h post-electroporation with WT or mutant viral RNA cross-linked with 1 mM DSP in PBS, 10 min, room temperature, quenched with 125 mM glycine; lysis buffer 2 (10 mM sodium phosphate pH 7.4, 50 mM NaCl, 1% Triton X-100); IP with mAb E1-20 or control mAb; cross-link reversed by DTT; western blot with RuV pAb
[1] = biological target: Rubella virus E2 envelope glycoprotein of the second-site revertant (N277I in the Y281A background) (Rubella virus (RuV))
[2] = biological target: Rubella virus E2 envelope glycoprotein, Y281A mutant (Rubella virus (RuV))
[3] = biological target: Rubella virus E2 envelope glycoprotein, pseudorevertant Y281V (Rubella virus (RuV))

Row | Molecule | Cp/E2 ratio in the E1 mAb IP, normalised to WT (ratio, WT set to 1) [1] | Cp/E2 ratio in the E1 mAb IP, normalised to WT (ratio, WT set to 1) [2] | Cp/E2 ratio in the E1 mAb IP, normalised to WT (ratio, WT set to 1) [3]
1 | Rubella virus capsid protein, D215A (second-site revertant) (from UniProt P08563 1-300) (natural protein) | 0.85 | – | –
2 | Rubella virus capsid protein, wild type (natural protein) MASTTPITMEDLQKALEAQSRALRAGLAAGASQSRRPRPPRQRDSSTSGDDSGRDSGGPRRRRGNRGRGQRKDWSRAPPPPEERQESRSQTPAPKPSRAPPQQPQPPRMQTGRGGSAPRPELGPPTNPFQAAVARGLRPPLHDPDTEAPTEACVTSWLWSEGEGAVFYRVDLHFTNLGTPPLDEDGRWDPALMYNPCGPEPPAHVVRAYNQPAGDVRGVWGKGERTYAEQDFRVGGTRWHRLLRMPVRGLDGDTAPLPPHTTERIETRSARHPWRIRFGAPQAFLAGLLLAAVAVGTARA | – | 0.31 | 0.46
